Measured values as given in FireProtDB (doi:10.1021/bi015547k).

B1: Steroid Delta-isomerase, P07445 (parent)
chain: MNLPTAQEVQGLMARYIELVDVGDIEAIVQMYADDATVEDPFGQPPIHGREQIAAFYRQGLGGGKVRACLTGPVRASHNGCGAMPFRVEMVWNGQPCALDVIDVMRFDEHGRIQTMQAYWSEVNLSVREPQ

Variants of: B1
Conditions: Pseudomonas putida; pH 7; 25 °C; Urea; CD; potassium phosphate 20 mM; reversible: yes; structure 1OH0; whole UniProt chain shown

Variant	denaturant m value	denaturant midpoint (higher = more stable)	unfolding free energy	ddG of mutation (higher = less stable)
Y16S	2.93 kcal/mol/M	1.99 M	12.4 kcal/mol	–
Y57S	3.43 kcal/mol/M	2.41 M	14.8 kcal/mol	9.5 kcal/mol
Y32S	2.55 kcal/mol/M	1.56 M	10.6 kcal/mol	–
